Experimental findings from article doi:10.1101/816264 are described below.

The experiment addresses mouse ASIC1a wild type (mouse) (UniProt Q6NXK8).

A value given as a limit tells only on which side of the number the result lay.

UniProt Q6NXK8, sequence (Q6NXK8 whole entry): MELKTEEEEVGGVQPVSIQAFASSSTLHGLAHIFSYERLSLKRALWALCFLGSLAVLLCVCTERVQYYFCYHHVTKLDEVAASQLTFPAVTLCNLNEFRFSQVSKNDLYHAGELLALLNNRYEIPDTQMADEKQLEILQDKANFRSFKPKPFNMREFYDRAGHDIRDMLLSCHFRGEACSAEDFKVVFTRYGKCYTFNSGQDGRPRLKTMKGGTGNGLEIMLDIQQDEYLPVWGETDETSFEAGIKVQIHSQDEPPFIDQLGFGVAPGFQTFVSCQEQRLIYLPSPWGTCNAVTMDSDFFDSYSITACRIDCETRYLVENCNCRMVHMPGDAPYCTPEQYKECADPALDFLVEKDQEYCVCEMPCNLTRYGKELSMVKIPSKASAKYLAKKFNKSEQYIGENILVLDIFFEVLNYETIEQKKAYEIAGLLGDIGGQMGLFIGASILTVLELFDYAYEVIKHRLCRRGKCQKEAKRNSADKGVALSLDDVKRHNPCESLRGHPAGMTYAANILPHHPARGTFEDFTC

In the case of BigDyn Arg9Ala (peptide), the fold increase of the EC50 of current rescue against BigDyn (TEVC) was more than 50 fold.
